# Laboratory results: patent US20250352589A1, “OXYTOCIN-MIMETIC COMPOSITIONS AND USES THEREOF” (INSTITUT NATIONAL DE LA SANTÉ ET DE LA RECHERCHE MÉDICALE, priority 2021, published 2025)
# Where two headings read alike, the source gives them in different places.
# T1: human OT-R (Homo sapiens, UniProt P30559)
# T1 construct: expressed in transfected cells; host or cells: HEK cells
# T1 sequence (P30559 1-389): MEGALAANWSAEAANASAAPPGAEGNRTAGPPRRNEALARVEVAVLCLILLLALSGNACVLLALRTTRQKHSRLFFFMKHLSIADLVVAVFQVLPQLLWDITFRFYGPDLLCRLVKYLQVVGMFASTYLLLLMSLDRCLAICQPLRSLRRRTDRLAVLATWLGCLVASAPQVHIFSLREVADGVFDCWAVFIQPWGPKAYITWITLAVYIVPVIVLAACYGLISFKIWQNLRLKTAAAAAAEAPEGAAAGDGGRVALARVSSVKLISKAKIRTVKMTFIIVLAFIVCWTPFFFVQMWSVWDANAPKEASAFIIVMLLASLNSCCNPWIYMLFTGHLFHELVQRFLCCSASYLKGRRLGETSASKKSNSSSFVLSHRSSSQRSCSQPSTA
# B1: 2,3-bisphosphoglycerate-dependent phosphoglycerate mutase (protein, listed as Lactobacillus camelliae)
# chain: MAKLVLIRHGQSEWNLSNQFTGWVDVDLSEKGTEEAKEAGRRIKKAGLEFDQAYTSVLTRAIKTLHYALEESDQLWIPETKTWRLNERHYGALQGQNKAEAAKKWGDEQVHIWRRSYDTLPPLLSADDEGSAAKDRRYANLDPRIIPGGENLKVTLERVIPFWEDHIAPDLLDGKNVIIAAHGNSLRALTKYIENISDEDIINLEMTTGEPVVYTFNDKLEVTDKVKLSK
# modifications: 2,3-bisphosphoglycerate-dependent phosphoglycerate mutase
# notes: protein expressed by Lactobacillus camelliae
# B2: Triosephosphate isomerase (protein, listed as Lactobacillus camelliae)
# chain: MAGNWKMNKNPEETQAFLDGVKGKLPESSKVQTVIAAPAIDLTTLVAGAKGTPLQTAAENCYFEDAGAFTGETSPKALKDMGLDYVVIGHSERRGYFHETDQDINKKAKAILKNGLLPIICCGESLDQREAGQTNDWVASQVEAALAGISAADVKNSVIAYEPIWAIGTGKTASADQAQEVVAHIRSIVAKLYDAETADAVRILYGGSVKPANVKELMAKPDIDGGLVGGASMDPESFVALANYQD
# modifications: Triosephosphate isomerase
# notes: as for B1
# B3: 2,5-didehydrogluconate reductase (protein, listed as Lactobacillus camelliae)
# chain: MAEISKMSDTYTLSNGVKIPIVGFGTWQTPDGDVAKHSVEVAIKDGYRHIDTAAMYRNEDSVGEGIKAGLAAAGLKRDDLFVTTKLNNNAHSFDLVQKAIDESLTKLGLDHVDLYLIHWPNPVSFRDSYPDSLKETWRGMEQVYKDGKARAIGISNFRQAHLDVIKADATVEPMVNQIFLNPSDLQPAVTKMNAENNILSEAYSPLGTGKLLGNEELAKVAAKYGKGVAQVLLRWSLQHGFLPLAKSVHDARIKENTELFDFTLSDEDMKTLDGMRGVAGLATDPDTTNF
# modifications: 2,5-didehydrogluconate reductase
# notes: as for B1
# B4: Fructose tagatose bisphosphate aldolase (protein, listed as Lactobacillus camelliae)
# chain: MFQAARKGHYAIGAFNTNNLEWTRALLKGAQELNVPILIQTSMGAAKYMGGYKLCKALIELEAESMNITVPVVIHLDHGNFEAAKEAIAAGYNSVMFDGHDLPFDENLEKTKEIVKLAHAKGISVEAEVGSIGGEEDGVIGEGELASVEEAKTLAATGIDFMAAGIGNIHGKYPSNWKGLHFDRLQEIADAVDLPLVLHGGSGIPQDQVEKAISMGIAKLNINTECQLAFAKATREYILANKDQEGKGYDPRKLLAPGTQAITDTFKEISGWMGTRPVKMVPEEIK
# modifications: Fructose tagatose bisphosphate aldolase
# notes: as for B1
# Experiments:
# human OT-R = molecular target: T1, human OT-R; test: Activation of OT-R by bacterial peptides: calcium release from HEK cells transfected with human OT-R; assay type: cell-based; details: for specific activation of OTR: OTR expressing HEK cells; for Emax: mean ± standard error, maximal amplitude of Ca2+ release, HEK cells expressing human OT-R; for activation of the oxytocin receptor: statement in the description, micromolar scale
# anti-oxytocin antibodies = test: Proteomic analysis: 2D gel and OT immunodetection (OT IgG) of bacterial proteomes; assay type: binding
# Description: In this study, 14 bacteria-extracted proteomes were analyzed: (i) from 5 Bifidobacterium species grown in anaerobe conditions, (ii) from 5 Lactobacillus species grown in anaerobe culture conditions and (iii) from 4 aerotolerant Lactobacillus species grown in aerobe conditions. Each proteome analysis was performed in triplicate and was further separated in 3 fractions i.e. soluble (S), membrane (M), and residual (R) resulting in 9 samples/proteome). Each fraction was initially screened by western blot (WB) for the presence OT-like reactivity to validate it for further 2D-SDS-PAGE analysis. […] Finally, all fractions have been analyzed using 2D gel technique and OT immunodetection. 2D gel electrophoresis allowed to improve visibility of the less abundant proteins in a complex sample. Thereby, all samples were analyzed at least once with this method to scan optimally each proteome in the search for OT mimicry. […] The specificity for OT-like staining was controlled by pre-adsorption of OT-IgG with OT peptide.
# All protein spots in silver nitrate staining gels corresponding to OT-like spots in the membrane were excised and analyzed by mass spectrometry
# human oxytocin receptor = human oxytocin receptor (human, UniProt P30559); test: cell-based or functional assay
# [1] = 2D-immunoblotting, spots identified by mass spectrometry
molecule,measurement,setting,value
CSCC[C@H](NC(=O)[C@@H]1CCCN1C(=O)CNC(=O)[C@H](CC(N)=O)NC(=O)[C@H](Cc1c[nH]c2ccccc12)NC(=O)[C@@H](NC(=O)[C@@H](NC(=O)[C@@H](NC(=O)[C@@H](N)CCCCN)[C@@H](C)O)C(C)C)C(C)C)C(=O)NCC(=O)O [Peptide 3],specific activation of OTR,human OT-R,specifically activated OTR
same,Emax,human OT-R,302 ± 35.41
same,activation of the oxytocin receptor,human OT-R,strongly activate the oxytocin receptor at a micromolar scale
CC[C@H](C)[C@H](NC(=O)[C@H](Cc1ccc(O)cc1)NC(=O)[C@@H](N)CC(=O)O)C(=O)N[C@@H](CCCCN)C(=O)N[C@@H](CC(N)=O)C(=O)N[C@@H](CCSC)C(=O)N[C@H](C(=O)N[C@H](C(=O)NCC(=O)O)[C@@H](C)O)[C@@H](C)CC [Peptide 8],specific activation of OTR,human OT-R,specifically activated OTR
same,Emax,human OT-R,140 ± 71.48
same,activation of the oxytocin receptor,human OT-R,strongly activate the oxytocin receptor at a micromolar scale
Elongation factor Tu [SEQ ID NO:14],immune cross-reaction with anti-oxytocin antibodies,anti-oxytocin antibodies; [1],immune cross-react with anti-oxytocin antibodies
Elongation factor Tu [SEQ ID NO:17],immune cross-reaction with anti-oxytocin antibodies,anti-oxytocin antibodies; [1],immune cross-react with anti-oxytocin antibodies
Enolase 2 [SEQ ID NO:8],immune cross-reaction with anti-oxytocin antibodies,anti-oxytocin antibodies; [1],immune cross-react with anti-oxytocin antibodies
Glucose-6-phosphate isomerase [SEQ ID NO:18],immune cross-reaction with anti-oxytocin antibodies,anti-oxytocin antibodies,immune cross-react with anti-oxytocin antibodies
H-ATSKNCPIA-OH [Peptide 4],specific activation of OTR,human OT-R,specifically activated OTR
same,Emax,human OT-R,304.6 ± 29.70
H-DFVKNMITG-OH [Peptide 17],Emax,human OT-R,135.3 ± 8.92
H-DYVKNMITG-OH [Peptide 1],specific activation of OTR,human OT-R,specifically activated OTR
same,most efficient OT-like peptides,human OT-R; judged by EC50 and maximal amplitude of Ca2+ release,most efficient
same,Emax,human OT-R,273.8 ± 35.03
same,activation of the oxytocin receptor,human OT-R,strongly activate the oxytocin receptor at a micromolar scale
H-KFVNDNELG-OH [Peptide 2],specific activation of OTR,human OT-R,specifically activated OTR
same,Emax,human OT-R,164.8 ± 107.9
same,activation of the oxytocin receptor,human OT-R,strongly activate the oxytocin receptor at a micromolar scale
H-KQFVHENELG-OH [Peptide 7],specific activation of OTR,human OT-R,specifically activated OTR
same,Emax,human OT-R,262.8 ± 35.64
H-KYIENISDE-OH [Peptide 14],specific activation of OTR,human OT-R,specifically activated OTR
same,Emax,human OT-R,221.5 ± 10.40
H-LTITNVPNS-OH [Peptide 5],specific activation of OTR,human OT-R,specifically activated OTR
same,Emax,human OT-R,272 ± 99.09
"H-QYIQEGR-OH [Peptide 6, H-QYIQEGR-OH]",specific activation of OTR,human OT-R,specifically activated OTR
same,Emax,human OT-R,99.42 ± 6.77
same,activation of the oxytocin receptor,human OT-R,strongly activate the oxytocin receptor at a micromolar scale
"H-SYFYNKEDG-OH [Peptide 10, LG]",activation of the oxytocin receptor,human OT-R,strongly activate the oxytocin receptor at a micromolar scale
"H-VDIQEFMIMPVG-OH [Peptide 9, Enolase 2 fragment 160-171; LG]",activation of the oxytocin receptor,human OT-R,strongly activate the oxytocin receptor at a micromolar scale
"H-DYVKNMITG-OH [OT-like peptide #1, Elongation factor Tu 87-95, H-DYVKNMITG-OH]",EC50 of calcium release,human oxytocin receptor,2.77 µM
same,Emax of calcium release,human oxytocin receptor,274
B1,immune cross-reaction with anti-oxytocin antibodies,anti-oxytocin antibodies; [1],immune cross-react with anti-oxytocin antibodies
"H-DYIKNMITG-OH [OT-like peptide #8, Elongation factor Tu 88-96, H-DYIKNMITG-OH]",Emax of calcium release,human oxytocin receptor,140
B2,immune cross-reaction with anti-oxytocin antibodies,anti-oxytocin antibodies; [1],immune cross-react with anti-oxytocin antibodies
B3,immune cross-reaction with anti-oxytocin antibodies,anti-oxytocin antibodies; [1],immune cross-react with anti-oxytocin antibodies
B4,immune cross-reaction with anti-oxytocin antibodies,anti-oxytocin antibodies; [1],immune cross-react with anti-oxytocin antibodies
"H-KQFVHENELG-OH [OT-like peptide #7, Glucose-6-phosphate isomerase 12-21, H-KQFVHENELG-OH]",EC50 of calcium release,human oxytocin receptor,2.57 µM
same,Emax of calcium release,human oxytocin receptor,263
H-LTITNVPNS-OH,EC50 of calcium release,human oxytocin receptor,2.7 µM
same,Emax of calcium release,human oxytocin receptor,272
"H-KFVNDNELG-OH [OT-like peptide #2, Glucose-6-phosphate isomerase 13-21, H-KFVNDNELG-OH]",EC50 of calcium release,human oxytocin receptor,3.21 µM
same,Emax of calcium release,human oxytocin receptor,165
"H-QYIQEGR-OH [OT-like peptide #6, Glucose-6-phosphate isomerase 313-319, H-QYIQEGR-OH]",EC50 of calcium release,human oxytocin receptor,3.79 µM
same,Emax of calcium release,human oxytocin receptor,99.4
"H-MFQAARKG-OH [OT-like peptide #11, Fructose tagatose bisphosphate aldolase 1-8, H-MFQAARKG-OH]",Emax of calcium release,human oxytocin receptor,4.65
"H-GFDRDCPVV-OH [OT-like peptide #16, Elongation factor Tu 164-172, H-GFDRDCPVV-OH]",Emax of calcium release,human oxytocin receptor,2.13
"H-VDIQEFMIMPVG-OH [OT-like peptide #9, Enolase 2 160-171, H-[…]-OH]",Emax of calcium release,human oxytocin receptor,119
"H-KTVVWNGPMG-OH [OT-like peptide #3, Phosphoglycerate kinase 317-326, H-KTVVWNGPMG-OH]",Emax of calcium release,human oxytocin receptor,302
"H-IYLRSNPLMK-OH [OT-like peptide #15, Probable phosphoketolase 40-49, H-IYLRSNPLMK-OH]",Emax of calcium release,human oxytocin receptor,5.36
H-KYIENISDE-OH,EC50 of calcium release,human oxytocin receptor,8.93 µM
same,Emax of calcium release,human oxytocin receptor,222
"H-SYFYNKEDG-OH [OT-like peptide #10, Enolase 246-254, H-SYFYNKEDG-OH]",Emax of calcium release,human oxytocin receptor,41.6
"H-DFVKNMITG-OH [OT-like peptide #17, Elongation factor Tu 89-97, H-DFVKNMITG-OH]",EC50 of calcium release,human oxytocin receptor,7.52 µM
same,Emax of calcium release,human oxytocin receptor,135
"H-CYFEDAGA-OH [OT-like peptide #13, Triosephosphate isomerase 61-68, H-CYFEDAGA-OH]",Emax of calcium release,human oxytocin receptor,17.9
"H-AYSPLGTGK-OH [OT-like peptide #12, 2,5-didehydrogluconate reductase 202-210, H-AYSPLGTGK-OH]",Emax of calcium release,human oxytocin receptor,5.25
"H-ATSKNCPIA-OH [OT-like peptide #4, GMP synthase [glutamine-hydrolyzing] 154-162, H-ATSKNCPIA-OH]",EC50 of calcium release,human oxytocin receptor,3.09 µM
same,Emax of calcium release,human oxytocin receptor,305
